{"source": "paper PMC4537775", "about": "(Cell, 2015)", "key": {"SEC [1]": {"target": "the molecule itself", "assay": "SEC"}, "SEC [2]": {"target": "the molecule itself", "assay": "SEC", "remark": "listed apart in the source"}}, "note": "Where two headings read alike, the source gives them in different places.", "data": [{"protein": "full-length IstB (AAA+ ATPase subunit of the Geobacillus stearothermophilus IS21 family member IS5376) (natural protein, UniProt Q45619 1-251, looked up) MKERIHEYCHRLHLPVMAERWSAMAEYASTHNISYSEFLFRLLEAEIVEKQARSIQTLIKLSKLPYRKTIDTFDFTAQPSVDERRIRELLTLSFIDRKENILFLGPPGIGKTHLAISIGMEAIARGYKTYFITAHDLVNQLRRADQEGKLEKKLRVFVKPTVLIIDEMGYLKLDPNSAHYLFQVIARRYEHAPIILTSNKSFGEWGEIVGDSVLATAMLDRLLHHSIIFNLKGESYRLREKRLQEEKQKDQ", "values": [{"measurement": "stoichiometry N", "setting": "SEC [1]", "result": 2}]}, {"protein": "full-length IstB Walker-B mutant E167Q (natural protein, Geobacillus stearothermophilus, UniProt Q45619 1-251, looked up) MKERIHEYCHRLHLPVMAERWSAMAEYASTHNISYSEFLFRLLEAEIVEKQARSIQTLIKLSKLPYRKTIDTFDFTAQPSVDERRIRELLTLSFIDRKENILFLGPPGIGKTHLAISIGMEAIARGYKTYFITAHDLVNQLRRADQEGKLEKKLRVFVKPTVLIIDQMGYLKLDPNSAHYLFQVIARRYEHAPIILTSNKSFGEWGEIVGDSVLATAMLDRLLHHSIIFNLKGESYRLREKRLQEEKQKDQ", "values": [{"measurement": "stoichiometry N", "setting": "SEC [2]", "result": 2}]}, {"protein": "full-length IstB Walker-A mutant K111A (natural protein, Geobacillus stearothermophilus, UniProt Q45619 1-251, looked up) MKERIHEYCHRLHLPVMAERWSAMAEYASTHNISYSEFLFRLLEAEIVEKQARSIQTLIKLSKLPYRKTIDTFDFTAQPSVDERRIRELLTLSFIDRKENILFLGPPGIGATHLAISIGMEAIARGYKTYFITAHDLVNQLRRADQEGKLEKKLRVFVKPTVLIIDEMGYLKLDPNSAHYLFQVIARRYEHAPIILTSNKSFGEWGEIVGDSVLATAMLDRLLHHSIIFNLKGESYRLREKRLQEEKQKDQ", "values": [{"measurement": "stoichiometry N", "setting": "SEC [2]", "result": 2}]}, {"protein": "full-length IstB arginine finger mutant R221A (natural protein, Geobacillus stearothermophilus, UniProt Q45619 1-251, looked up) MKERIHEYCHRLHLPVMAERWSAMAEYASTHNISYSEFLFRLLEAEIVEKQARSIQTLIKLSKLPYRKTIDTFDFTAQPSVDERRIRELLTLSFIDRKENILFLGPPGIGKTHLAISIGMEAIARGYKTYFITAHDLVNQLRRADQEGKLEKKLRVFVKPTVLIIDEMGYLKLDPNSAHYLFQVIARRYEHAPIILTSNKSFGEWGEIVGDSVLATAMLDALLHHSIIFNLKGESYRLREKRLQEEKQKDQ", "values": [{"measurement": "stoichiometry N", "setting": "SEC [2]", "result": 2}]}, {"protein": "full-length IstB sensor-II mutant R237A (natural protein, Geobacillus stearothermophilus, UniProt Q45619 1-251, looked up) MKERIHEYCHRLHLPVMAERWSAMAEYASTHNISYSEFLFRLLEAEIVEKQARSIQTLIKLSKLPYRKTIDTFDFTAQPSVDERRIRELLTLSFIDRKENILFLGPPGIGKTHLAISIGMEAIARGYKTYFITAHDLVNQLRRADQEGKLEKKLRVFVKPTVLIIDEMGYLKLDPNSAHYLFQVIARRYEHAPIILTSNKSFGEWGEIVGDSVLATAMLDRLLHHSIIFNLKGESYALREKRLQEEKQKDQ", "values": [{"measurement": "stoichiometry N", "setting": "SEC [2]", "result": 2}]}]}
